Series [1] deals with PC3 cells. As to the kind of experiment: Release of native paclitaxel in the presence of PC3 cells. It is filed as cell-based, human. The settings on record: in the presence of PC3 cells (data not shown).
Series [2] can be described thus: Microsomal stability. It is filed as in vitro ADME. The settings on record: rat, liver microsomes, pH 7.2.
Series [3] is described as follows: Bio-distribution: PTX levels in tumor and plasma by LC-MS/MS. Type of series: in vivo, mice.
The subject of series [4] is PC3 cells. As to the kind of experiment: ATP-Lite analysis of cell viability. The settings on record: 72 hours, 10 nM, EphA2 overexpressing PC3. Type of series: cell-based, human.
The nature of series [5]: Plasma stability. Type of series: in vitro ADME. Particulars: rat, plasma (fresh).
The test system of series [6] is PC3 tumor xenografts. The settings on record: intravenous, twice weekly for 3 weeks.
Series [7] has as its target T1, EphA2 (Homo sapiens, UniProt P29317). The series is described as follows: EphA2 internalization into lysosomes, confocal imaging. Type of series: cell-based. Particulars: PC3 cells, 2 h, 100 μM conjugate or 0.2 μg/mL ephrin-A1 Fc.
In series [8] the target is EphA2 Fc (Homo sapiens, UniProt P29317). As to the kind of experiment: ELISA displacement of ephrin-A5 AP from immobilized EphA2 Fc. The settings on record: ephrin-A5 AP binding to EphA2 Fc.
Series [9] addresses T1, EphA2. The series is described as follows: Quantum dot internalization into lysosomes. The settings on record: PC3 prostate cancer cells (highly EphA2 expressing), 100 μM.

The results in this text go back to paper PMC3299084 (Journal of Medicinal Chemistry, 2012).

Peptide text beside a SMILES is read from it. * marks the point of attachment. X1 = CC(=O)O[C@H]1C(=O)[C@@]2(C)[C@H]([C@H](OC(=O)c3ccccc3)[C@]3(O)C[C@H](OC(=O)[C@H](OC(=O)COCC(=O)OCCCCCCn4cc(CCCC(=O)*)nn4)[C@@H](NC(=O)c4ccccc4)c4ccccc4)C(C)=C1C3(C)C)[C@]1(OC(C)=O)CO[C@@H]1C[C@@H]2O

T1 sequence (P29317 24-976): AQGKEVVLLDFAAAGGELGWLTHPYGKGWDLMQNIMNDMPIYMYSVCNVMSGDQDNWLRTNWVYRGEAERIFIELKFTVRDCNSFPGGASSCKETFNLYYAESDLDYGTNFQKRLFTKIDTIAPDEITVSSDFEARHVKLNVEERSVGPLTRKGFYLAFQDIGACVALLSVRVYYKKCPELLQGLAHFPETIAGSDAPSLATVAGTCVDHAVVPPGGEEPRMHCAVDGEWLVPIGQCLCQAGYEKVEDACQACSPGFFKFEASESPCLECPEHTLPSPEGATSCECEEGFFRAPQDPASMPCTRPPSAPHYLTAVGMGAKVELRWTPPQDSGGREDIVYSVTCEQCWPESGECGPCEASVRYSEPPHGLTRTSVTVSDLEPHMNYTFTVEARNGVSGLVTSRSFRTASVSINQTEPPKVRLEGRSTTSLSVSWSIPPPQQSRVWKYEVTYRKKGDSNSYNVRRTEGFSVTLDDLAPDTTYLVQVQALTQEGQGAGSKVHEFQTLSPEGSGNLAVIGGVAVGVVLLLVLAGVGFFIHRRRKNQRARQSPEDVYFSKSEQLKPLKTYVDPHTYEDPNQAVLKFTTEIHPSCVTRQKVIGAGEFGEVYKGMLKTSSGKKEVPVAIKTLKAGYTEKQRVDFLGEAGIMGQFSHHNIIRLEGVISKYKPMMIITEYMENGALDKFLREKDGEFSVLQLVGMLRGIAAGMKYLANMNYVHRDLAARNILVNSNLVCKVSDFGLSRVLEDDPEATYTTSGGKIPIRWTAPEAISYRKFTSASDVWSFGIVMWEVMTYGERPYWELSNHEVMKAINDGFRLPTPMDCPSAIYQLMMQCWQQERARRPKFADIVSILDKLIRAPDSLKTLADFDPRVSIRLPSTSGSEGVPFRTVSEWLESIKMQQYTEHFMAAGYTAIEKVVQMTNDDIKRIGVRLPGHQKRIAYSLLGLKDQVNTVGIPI
Chain of EphA2 Fc (P29317 24-537 limits assumed): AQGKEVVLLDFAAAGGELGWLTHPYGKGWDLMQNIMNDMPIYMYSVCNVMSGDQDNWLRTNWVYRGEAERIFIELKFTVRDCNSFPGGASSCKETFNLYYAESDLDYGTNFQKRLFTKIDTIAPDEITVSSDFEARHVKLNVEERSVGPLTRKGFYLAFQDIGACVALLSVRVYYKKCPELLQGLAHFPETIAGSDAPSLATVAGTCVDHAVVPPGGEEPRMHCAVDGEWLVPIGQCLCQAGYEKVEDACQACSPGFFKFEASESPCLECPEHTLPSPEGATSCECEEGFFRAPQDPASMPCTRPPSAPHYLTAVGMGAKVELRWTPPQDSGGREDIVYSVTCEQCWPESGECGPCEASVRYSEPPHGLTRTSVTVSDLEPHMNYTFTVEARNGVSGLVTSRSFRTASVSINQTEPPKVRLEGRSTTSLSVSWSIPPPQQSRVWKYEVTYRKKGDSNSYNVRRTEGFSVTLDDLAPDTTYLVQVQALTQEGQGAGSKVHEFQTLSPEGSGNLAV

As to `CSCC[C@H](NC(=O)[C@H](CCSC)NC(=O)[C@@H]1CCCN1C(=O)[C@@H](NC(=O)[C@H](CO)NC(=O)[C@H](CC(=O)O)NC(=O)[C@@H]1CCCN1C(=O)[C@H](Cc1ccc(O)cc1)NC(=O)[C@H](C)NC(=O)[C@H](CO)NC(=O)[C@@H](N)Cc1ccc(O)cc1)C(C)C)C(=O)N[C@@H](CO)C(=O)N[C@@H](CCCCNC(=O)CCCc1cn(CCCCCCOC(=O)COCC(=O)O[C@@H](C(=O)O[C@H]2C[C@@]3(O)[C@@H](OC(=O)c4ccccc4)[C@@H]4[C@]5(OC(C)=O)CO[C@@H]5C[C@H](O)[C@@]4(C)C(=O)[C@H](OC(C)=O)C(=C2C)C3(C)C)[C@@H](NC(=O)c2ccccc2)c2ccccc2)nn1)C(=O)O` [YSA-PTX], the “time to nearly complete release of native paclitaxel” value in [1] is on record as “about 60 minutes”. In addition, the half-life at 4 μM in [2] is 23 min. The “Plasma levels of PTX” value in series [3] (30 min after single equimolar intravenous dose (PTX 25 mg/kg)) amounted to 998 ± 742 ng/mL. For the same molecule, the “cell death / viability of PC3 cells” value in series [4] was “retained the ability of paclitaxel to induce cell death at low nanomolar concentrations”. In [5], this molecule came in with a half-life at 1 μM of 43 min. Besides, the signs of toxicity result in series [6] is “no adverse signs of toxicity”. Also, in series [6] (versus vehicle control), the mouse body weights entry is reported as “not affected”.

`CC(=O)O[C@H]1C(=O)[C@@]2(C)[C@H]([C@H](OC(=O)c3ccccc3)[C@]3(O)C[C@H](OC(=O)[C@H](O)[C@@H](NC(=O)c4ccccc4)c4ccccc4)C(C)=C1C3(C)C)[C@]1(OC(C)=O)CO[C@@H]1C[C@@H]2O` [PTX, paclitaxel, reference compound] displayed a concentration at 30 min in [3] (SCID-beige, mouse, plasma, intravenous, 25 mg/kg) of 771 ± 585 ng/mL.

Turning to `CSCC[C@H](NC(=O)[C@H](C)NC(=O)[C@H](CCSC)NC(=O)[C@H](CO)NC(=O)[C@@H]1CCCN1C(=O)[C@H](Cc1ccc(O)cc1)NC(=O)[C@@H](N)CC(=O)O)C(=O)N[C@@H](Cc1ccc(O)cc1)C(=O)N[C@@H](CO)C(=O)N1CCC[C@H]1C(=O)N[C@@H](CO)C(=O)N[C@H](C(=O)N[C@@H](CCCCNC(=O)CCCc1cn(CCCCCCOC(=O)COCC(=O)O[C@@H](C(=O)O[C@H]2C[C@@]3(O)[C@@H](OC(=O)c4ccccc4)[C@@H]4[C@]5(OC(C)=O)CO[C@@H]5C[C@H](O)[C@@]4(C)C(=O)[C@H](OC(C)=O)C(=C2C)C3(C)C)[C@@H](NC(=O)c2ccccc2)c2ccccc2)nn1)C(=O)O)C(C)C` [DYP-PTX, DYPSMAMYSPSV- K*-PTX] (H-DYPSMAMYSPSVK(X1)-OH; N-terminus and C-terminus assumed), the “cell death / viability of PC3 cells” value in [4] was “no significant cell killing”. Moreover, the “EphA2 internalization into lysosomes” value in [7] was “does not trigger EphA2 internalization”. The “displacement of ephrin-A5” value in series [8] is recorded as “neither of the control compounds, DYP motif nor DYP-PTX conjugate, show any detectable displacement of ephrin-A5”. Further, the “Qdot uptake / targeting of cells” value in series [9] is listed as “does not target PC3 cells”.
